Measured values as given in US20240174733A1 (ACCELERON PHARMA, published 2024).

B1: BMP10 (ligand, UniProt O95393 317-424, looked up)
chain: NAKGNYCKRTPLYIDFKEIGWDSWIIAPPGYEAYECRGVCNYPLAEHLTPTKHAIIQALVHLKNSQKASKACCVPTKLEPISILYLDKGVVTYKFKYEGMAVSECGCR
B2: GDF11 (ligand, UniProt O95390 299-407, looked up)
chain: NLGLDCDEHSSESRCCRYPLTVDFEAFGWDWIIAPKRYKANYCSGQCEYMFMQKYPHTHLVQQANPRGSAGPCCTPTKMSPINMLYFNDKQQIIYGKIPGMVVDRCGCS
notes: Immobilized on a Biacore CM5 chip by amine coupling

Columns and labels:
ActRIIA-mFc [1] = biological target: T1, ActRIIA-mFc (human, UniProt P27037 21-135); experiment: similar binding assay (Biacore)
T1 construct: also called RAP-011; sotatercept analog RAP-011; not shown: "minimal linker"; mouse Fc domain
T1 sequence (P27037 21-135): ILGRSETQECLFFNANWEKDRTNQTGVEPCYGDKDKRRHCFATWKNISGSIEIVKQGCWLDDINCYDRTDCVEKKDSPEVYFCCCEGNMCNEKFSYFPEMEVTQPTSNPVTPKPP

ActRIIA-mFc [2] = biological target: T1, ActRIIA-mFc; experiment: SPR (Biacore), ligand amine-coupled on CM5 chip, ActRIIA-mFc as analyte
Description: GDF11 or activin A were immobilized on a Biacore™ CM5 chip using standard amine-coupling procedure. ActRIIA-hFc and ActRIIA-mFc proteins were loaded onto the system, and binding was measured. […] Using a similar binding assay, ActRIIA-hFc was determined to have high to moderate affinity for other TGF-beta superfamily ligands including, for example, activin B, GDF8, BMP6, and BMP10. ActRIIA-mFc behaved similarly.

Row | Binder | binding result (ActRIIA-mFc [1]) | binding result (ActRIIA-mFc [2])
1 | B1 | binds | 
2 | B2 |  | binds
